Measurements taken from patent US12599645B2, “Antibodies which bind to lysophosphatidic acid receptor 1 (LPAR1)” (DJS ANTIBODIES LTD, priority 2021, dated 2026).
Numbering of substitutions follows the chain as printed. In names and notes the source's numbering stands. Each block holds one molecule with its values, some of them ahead of it.

Assays:
LPAR1 [1] = target: T1, LPAR1 (Homo sapiens, UniProt Q92633); test: Function of humanised and affinity matured variants, method not stated; design: expressed in transfected cells; details: stated in words
LPAR1 [2] = target: T1, LPAR1; test: Transient-transfection CIFAT, fixed/permeabilised cells; format: binding; design: HA; expressed in transfected cells; host or cells: CHO-K1 (transient, PEI); details: 5 μg/mL
LPAR1 [3] = target: T1, LPAR1; test: Transient-transfection CIFAT, live cells; format: binding; design: HA; expressed in transfected cells; host or cells: CHO-K1 (transient, PEI); details: 5 μg/mL or 20 μg/mL
Method: CHO-K1 cells are seeded in multi well plates at 20,000 cells per 200 μL full growth medium and incubated for 24 hours at 37° C. In a sterile tube, 0.0309 uL/well PEI is diluted into 10 uL/well transfection medium (DMEM supplemented with 2 mM L-glutamine and Penicillin-Streptomycin). The diluted PEI is added to 100 ng/well DNA, before mixing immediately and incubating the mixture for 10 minutes at room temperature. 200 μL/well full growth medium is added to the PEI-DNA mixture, then medium in wells is taken off and 200 ul full growth medium/PEI/DNA mixture is added in the wells of the adherent cell plate. The plate is incubated for 24 hours at 37° C. The medium is discarded and replaced with 200 μL full growth medium. The plate is incubated for 24 hours at 37° C. Medium is removed from the wells and the cells incubated with primary antibody at varying concentrations for 75 minutes at 37° C. After washing and cell fixation with 4% PFA, the binding of the antibodies is detected using a goat anti-human detection antibody, incubated for 1 hour at room temperature. Fluorescence at 488 nm is measured.
CHO-K1 cells were seeded in clear 96-well plates at 20,000 cells per 200 μL full growth medium and incubated for 24 hours at 37° C. The following day, in a sterile tube, 0.0309 uL/well PEI (Generon, MW 160,000) was diluted into 10 uL/well transfection medium (DMEM supplemented with 2 mM L-glutamine and Penicillin-Streptomycin). The diluted PEI was added to 100 ng/well DNA encoding the target protein (human LPAR1 (SEQ ID NO: 62) unless otherwise stated), before vortexing immediately and incubating the mixture for 10 minutes at room temperature. 200 μL/well full growth medium was added to the PEI-DNA mixture, then medium in wells was taken off and 200 ul full growth medium/PEI/DNA mixture was added in the wells of the adherent cell plate. The plate was incubated for 24 hours at 37° C. The next day, the medium was discarded and replaced with 200 μL full growth medium. The plate was incubated for 24 hours at 37° C. The following day, medium was removed from the wells and the cells incubated with primary antibody at varying concentrations for 75 minutes at 37° C. After washing and cell fixation with 4% PFA, the binding of the antibodies was detected using a goat anti-human Alexa Fluor 488 detection antibody (Invitrogen), incubated for 1 hour at room temperature. Fluorescence at 488 nm was measured using a BMG LABTECH ClarioStar plate reader and microscopy images were taken at 10× magnification.
(§1) Anti-LPAR1 antibodies of the invention were tested alongside commercially available anti-LPAR1 antibodies in the transient-transfection CIFAT assay for live cells (method 1.11) and in the transient-transfection CIFAT assay for fixed cells (method 1.11).

Irrelevant GPCR = test: Transient-transfection CIFAT, irrelevant GPCR control (fixed and live cells); format: binding; details: cells expressing irrelevant GPCR
Method: as §1
The results are shown in FIGS. 11 and 12, wherein the scale bar represents 100 μm.

[4] = system: renal fibrosis after UUO surgery; test: Unilateral ureteral obstruction (UUO) efficacy model of renal fibrosis; format: in vivo, Hartley guinea pigs; details: Study 1; BMS-986020 30 mg/kg oral twice daily; antibody 20 mg/kg i.p.; Day 10
Method: Unilateral ureteral obstruction (UUO) is a well-characterized disease model for renal fibrosis. The UUO model encompasses key pathophysiological features of chronic kidney disease; tubular necrosis and inflammatory cell infiltration within a relatively short period.
Two unilateral ureteral obstruction (UUO) model efficacy studies were carried out in six-week old female Hartley guinea pigs. On Day 0, UUO surgery was performed. BMS-986020 was administered orally at a dose level of 30 mg/kg in a volume of 5 mL/kg twice daily at from Day −1 to 9. Isotype control and anti-LPAR1 antibody was intraperitoneally administered at a dose level of 6 mg/kg (low) or 20 mg/kg (high) in a volume of 10 mL/kg at Day −1, Day 0, Day 3 and Day 6. The viability, clinical signs, behaviour and individual body weight was monitored daily.
The animals were sacrificed at Day 10. The ligated left kidney and right kidney weight were measured at sacrifice.
Hydroxyproline is an amino acid, making up around 14% of collagen and acts as an important indicator of the severity of fibrosis. To quantify kidney hydroxyproline content, frozen posterior right section of left kidney samples were processed by an alkaline-acid hydrolysis method. AC buffer (2.2M acetic acid/0.48M citric acid) was added to the samples, followed by centrifugation to collect the supernatant. A standard curve of hydroxyproline was constructed with serial dilutions of trans-4-hydroxy-L-proline (Sigma-Aldrich, USA) starting at 16 μg/mL. The prepared samples and standards were mixed with chloramine T solution (Nacalai Tesque Inc., Japan) and incubated for 25 minutes at room temperature. The samples were then mixed with Ehrlich's solution and heated at 65° C. for 20 minutes to develop the colour. After samples were cooled on ice and centrifuged to remove precipitates, the optical density of each supernatant was measured at 560 nm. The concentrations of hydroxyproline were calculated from the hydroxyproline standard curve. Protein concentrations of kidney samples were determined using a BCA protein assay kit (Thermo Fisher Scientific, USA) and used to normalize the calculated hydroxyproline values. Kidney hydroxyproline contents were expressed as μg per mg protein.
The left kidney was fixed in Bouin's solution and embedded in paraffin. For PAS staining, sections were cut from paraffin blocks and stained with Schiff's reagent (FUJIFILM Wako pure chemical corporation, Japan) according to the manufacturer's instructions. To visualize collagen deposition, kidney sections were stained using picro-Sirius red solution (FUJIFILM Wako pure chemical corporation). For quantification of interstitial and medulla fibrosis area, bright field images in the corticomedullary region were captured using a digital camera (DFC295) at 200-fold magnification, and the positive areas in 5 fields/section were measured using ImageJ software (National Institute of Health, USA).

LPAR1 [5] = target: T1, LPAR1; test: LPAR1 binding affinity during discovery and affinity maturation, method not stated; design: expressed in transfected cells; details: stated in words
CHO-LPAR1 cells = target: T2, CHO-LPAR1 cells (Homo sapiens, UniProt Q92633); test: Competition CIFAT; format: binding; details: data not shown
T2 construct: expressed in transfected cells
Method: CHO-LPAR1 (GenScript) cells were seeded in black 96-well plates at 50,000 cells/200 μL full growth medium at and incubated for 24 hours at 37° C. The following day, the medium was removed from the wells and the cells incubated with 100 μg/mL primary antibody for 20 minutes at 37° C. After pre-incubation with the antibody, 10 μg/mL biotinylated competing antibody was added before incubation for 20 minutes at 37° C. After washing and cell fixation with 4% PFA, the binding of the antibodies was detected using an Alexa Fluor 488 streptavidin detection antibody (Molecular Probes), incubated for 45 minutes at 4° C. Fluorescence at 488 nm was measured using a BMG LABTECH ClarioStar plate reader and microscopy images were taken at 10× magnification.

T1 sequence (Q92633 whole entry): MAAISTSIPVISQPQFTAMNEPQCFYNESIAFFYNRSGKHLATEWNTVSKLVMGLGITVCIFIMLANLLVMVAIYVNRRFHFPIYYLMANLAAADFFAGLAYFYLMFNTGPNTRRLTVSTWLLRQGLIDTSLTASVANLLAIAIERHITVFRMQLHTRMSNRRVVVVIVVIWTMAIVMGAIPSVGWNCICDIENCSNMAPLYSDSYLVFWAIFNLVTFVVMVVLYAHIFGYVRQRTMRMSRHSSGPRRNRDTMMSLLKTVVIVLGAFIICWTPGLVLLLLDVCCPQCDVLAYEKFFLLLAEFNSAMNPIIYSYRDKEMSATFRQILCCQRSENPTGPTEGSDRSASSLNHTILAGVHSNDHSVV
T2 sequence (Q92633 whole entry): as above

B1: Antibody 7: Humanised variant of Antibody 1; VH SEQ ID NO: 33, VL SEQ ID NO: 34 (antibody, V domains shown)
VH: QVQLVQSGSELKKPGASVKVSCKASGYTFTSSGISWVRQAPGQGLEWMGEILPRSGYTNYNEGFTGRFVFSADKSVSTAYLQISSLKAEDTAVYYCARDFGSSRYAMDYWGQGTTVTVSS
VL: SIQMTQSPSSLSASVGDRVTITCQASQSVRYNVAWYQQKPGKAPKLLIYYASNRYTGVPSRFSGSGSGTDFTFTISSLQPEDIATYFCQQHYNSPLTFGGGTKLEIK
- function (LPAR1 [1]): best in terms of expression, stability and function

B4: Antibody 2: Murine germline sequence Antibody 1 was derived from; VH SEQ ID NO: 25, VL SEQ ID NO: 26 (antibody, V domains shown)
VH: QVQLQQSGAELARPGASVKLSCKASGYTFTSYGISWVKQRTGQGLEWIGEIYPRSGNTYYNEKFKGKATLTADKSSSTAYMELRSLTSEDSAVYFCARDYGSSRYAMDYWGQGTSVTVSS
VL: SIVMTQTPKFLPVSAGDRVTMTCKASQSVGNNVAWYQQKPGQSPKLLIYYASNRYTGVPDRFTGSGSGTDFTFTISSVQVEDLAVYFCQQHYSSPLTFGAGTKLELK
- binding affinity for LPAR1 (LPAR1 [5]): extremely low binding affinity

B5: Antibody 1: Hybridoma-derived antibody against LPAR1; VH SEQ ID NO: 23, VL SEQ ID NO: 24 (antibody, V domains shown)
VH: B4 VH with Y32S, Y52L, N57Y, Y59N, T69S, Y100F, G111S
VL: B4 VL with F10L, G30R, N31Y, I75V, S76R, S93N, A100S, K107R
- competition for the same epitope (CHO-LPAR1 cells): compete for the same epitope

B6: Antibody 4: Hybridoma related to Antibody 1 with LCDR3 mutation Q90H; VH SEQ ID NO: 29, VL SEQ ID NO: 30 (antibody, V domains shown)
VH: B4 VH with Y32S, N57Y, Y59N, T69S, S77R, G101D, S102N, M107L
VL: B4 VL with N31Y, P40T, Q90H
- LPAR1 fixed cell staining (LPAR1 [2]): LPAR1-Significant fixed and live cell staining
- LPAR1 live cell staining (LPAR1 [3]): LPAR1-Significant fixed and live cell staining
- Irrelevant GPCR cell staining (Irrelevant GPCR): Irrelevant GPCR-No significant cell staining

B8: Antibody 5: Antibody 3 with VL mutation Q90H; VH SEQ ID NO: 27, VL SEQ ID NO: 31 (antibody, V domains shown)
VH: B4 VH with Y32S, Y52L, N57Y, Y59N, Y100F
VL: B4 VL with G30R, N31Y, Q90H, S93N
- binding affinity for LPAR1 (LPAR1 [5]): improved affinity

B9: 63D8: Further hybridoma antibody specific to LPAR1; VH SEQ ID NO: 113, VL SEQ ID NO: 114 (antibody, V domains shown)
VH: EVKLLESGGGLVQPGGSLKLSCTASGFDFSRYWMSWVRQAPGKGLEWIGEINPSRSAINYSPSLKDKFIISRDNAKNTLYLQMSKVRSEDTALYYCARQGQRLRYGMDYWGQGTSVTVSS
VL: DIVMTQSPNFMSTSVGDRVSVTCRASQDVRTAVAWYQQKPGRSPKLLIYWTSTRHTGVPDRFTGSGSGTDYTLTISSVQAADLALYYCQQHYGTPLTFGAGTNLELK
- LPAR1 fixed cell staining (LPAR1 [2]): LPAR1-Significant fixed and live cell staining
- LPAR1 live cell staining (LPAR1 [3]): LPAR1-Significant fixed and live cell staining
- competition for the same epitope (CHO-LPAR1 cells): compete for the same epitope
- Irrelevant GPCR cell staining (Irrelevant GPCR): Irrelevant GPCR-No significant cell staining

Second part, led by results:

- function (LPAR1 [1]): significantly enhanced the function
B2: Antibody 9: Antibody 8 with HCDR2 mutation E61Q; VH SEQ ID NO: 35, VL SEQ ID NO: 39 (antibody, V domains shown)
VH: B1 VH with E62Q
VL: B1 VL with Q90H, N93S

- binding affinity for LPAR1 (LPAR1 [5]): minimal effect on affinity
B3: Antibody 13: LCDR2 mutation T56D; VH SEQ ID NO: 37, VL SEQ ID NO: 38 (antibody, V domains shown)
VH: B1 VH with E62Q, F100K, S102P, A106T
VL: B1 VL with T56D, Q90H, N93S
- LPAR1 fixed cell staining (LPAR1 [2]): LPAR1-Significant fixed and live cell staining
- LPAR1 live cell staining (LPAR1 [3]): LPAR1-Significant fixed and live cell staining
- Irrelevant GPCR cell staining (Irrelevant GPCR): Irrelevant GPCR-No significant cell staining
- kidney hydroxyproline [4]: No observable difference

- binding affinity for LPAR1 (LPAR1 [5]): large affinity gain
B7: Antibody 6: Antibody 5 with LCDR3 reversion N93S; VH SEQ ID NO: 27, VL SEQ ID NO: 32 (antibody, V domains shown)
VH: B4 VH with Y32S, Y52L, N57Y, Y59N, Y100F
VL: B4 VL with G30R, N31Y, Q90H
